This is an account of results in FireProtDB (doi:10.1016/0168-1656(93)90129-b).

For this data set the following is noted: Escherichia coli (strain K12), CD, reversible: yes, whole UniProt chain shown; for Tm: Thermal; for denaturant midpoint (higher = more stable) / unfolding free energy: 25 °C, GdnHCl.

B1: Ribonuclease HI wild type, P0A7Y4 (protein)
chain: MLKQVEIFTDGSCLGNPGPGGYGAILRYRGREKTFSAGYTRTTNNRMELMAAIVALEALKEHCEVILSTDSQYVRQGITQWIHNWKKRGWKTADKKPVKNVDLWQRLDAALGQHQIKWEWVKGHAGHPENERCDELARAAAMNPTLEDTGYQVEV
B1: the melting temperature (Tm) came to 49.4 °C (pH 3, glycine-HCl 10 mM); 52.7 °C (pH 5.5, Sodium acetate 20 mM); 50.2 °C (pH 7.8, Sodium phosphate 20 mM). Besides, the “denaturant midpoint (higher = more stable)” value (pH 5.5, Sodium acetate 20 mM) turned out to be 1.79 M and the “denaturant midpoint (higher = more stable)” value (pH 8.2, Tris-HCl 20 mM) was 1.65 M. Further, the unfolding free energy is, setting by setting: (pH 5.5, Sodium acetate 20 mM) 9.21 kcal/mol; (pH 8.2, Tris-HCl 20 mM) 8.49 kcal/mol.
